B1: non-tagged Net4ΔC (gift from the Koch lab) (domain or fragment, mouse)
chain: CEKACNPRMGNLALGRKLRADTMCGQNATELFCFYSENADLTCRQPKCDKCNAAHSHLAHPPSAMADSSFRFPRTWWQSAEDVHREKIQLDLEAEFYFTHLIMVFKSPRPAAMVLDRSQDFGKTWKPYKYFATNCSATFGLEDDVVKKGAICTSRYSNPFPCTGGEVIFRALSPPYDIENPYSAKVQEQLKITNLRVRLLKRQSCPCQINDLNAKPHHFMHYAVYDFIVKGSCFCNGHADQCLPVEGFRPIKAPGAFHVVHGRCMCKHNTAGSHCQHCAPLYNDRPWEAADGRTGAPNECRTCKCNGHADTCHFDVNVWEASGNRSGGVCNNCQHNTEGQHCQRCKPGFYRDLRRPFSAPDACKACSCHPVGSAILPFSSVTFCDPSNGDCPCKPGVAGPHCDRCMVGYWGFGDYGCRPCDCAGSCDPLTGDC

Legend:
Assay in all cases: ELISA
[1] = biological target: non-tagged Net4ΔC (gift from the Koch lab) (mouse) (UniProt Q9JI33)
[2] = biological target: B1
[3] = biological target: recombinant mouse laminin 111 (Lm111) (mouse, UniProt P19137 25-3083; P02469 22-1786; P02468 34-1607)

Row | Molecule | Kd [2] | further results
1 | γ1ΔC D285R (from UniProt P11047 37-341) (domain or fragment) | – | Kd [1]: 1.57 nM
2 | γ1ΔC (N-terminal fragment of laminin γ1), human, C-terminally flag-tagged (domain or fragment, N-glycans at N60 and N134) QAAMDECTDEGGRPQRCMPEFVNAAFNVTVVATNTCGTPPEEYCVQTGVTGVTKSCHLCDAGQPHLQHGAAFLTDYNNQADTTWWQSQTMLAGVQYPSSINLTLHLGKAFDITYVRLKFHTSRPESFAIYKRTWEDGPWIPYQYYSGSCENTYSKANRGFIRTGGDEQQALCTDEFSDISPLTGGNVAFSTLEGRPSAYNFDNSPVLQEWVTATDISVTLNRLNTFGDEVFNDPKVLKSYYYAISDFAVGGRCKCNGHASECMKNEFDKLVCNCKHNTYGVDCEKCLPFFNDRPWRRATAESASECLPCDCNGRSQECYFDPELYRSTGHGGHCTNCQDNTDGAHCERCRENFFRLGNNEACSSCHCSPVGSLSTQCDSYGRCSCKPGVMGDKCDRCQPGFHSLTEAGCRPCSCDPSGSIDECNIETGRCVCKDNVEGFNCERCKPGFFNLESSNPRGCTP | 2.93 ± 0.51 nM | –
3 | γ1ΔC D266R (domain or fragment) QAAMDECTDEGGRPQRCMPEFVNAAFNVTVVATNTCGTPPEEYCVQTGVTGVTKSCHLCDAGQPHLQHGAAFLTDYNNQADTTWWQSQTMLAGVQYPSSINLTLHLGKAFDITYVRLKFHTSRPESFAIYKRTREDGPWIPYQYYSGSCENTYSKANRGFIRTGGDEQQALCTDEFSDISPLTGGNVAFSTLEGRPSAYNFDNSPVLQEWVTATDIRVTLNRLNTFGDEVFNRPKVLKSYYYAISDFAVGGRCKCNGHASECMKNEFDKLVCNCKHNTYGVDCEKCLPFFNDRPWRRATAESASECLP | 4 ± 0.4 nM | –
4 | γ1ΔC Y147R (domain or fragment) QAAMDECTDEGGRPQRCMPEFVNAAFNVTVVATNTCGTPPEEYCVQTGVTGVTKSCHLCDAGQPHLQHGAAFLTDYNNQADTTWWQSQTMLAGVQYPSSINLTLHLGKAFDITRVRLKFHTSRPESFAIYKRTREDGPWIPYQYYSGSCENTYSKANRGFIRTGGDEQQALCTDEFSDISPLTGGNVAFSTLEGRPSAYNFDNSPVLQEWVTATDIRVTLNRLNTFGDEVFNDPKVLKSYYYAISDFAVGGRCKCNGHASECMKNEFDKLVCNCKHNTYGVDCEKCLPFFNDRPWRRATAESASECLP | 2.28 ± 0.43 nM | –
5 | γ1ΔC R149E (domain or fragment) QAAMDECTDEGGRPQRCMPEFVNAAFNVTVVATNTCGTPPEEYCVQTGVTGVTKSCHLCDAGQPHLQHGAAFLTDYNNQADTTWWQSQTMLAGVQYPSSINLTLHLGKAFDITYVELKFHTSRPESFAIYKRTREDGPWIPYQYYSGSCENTYSKANRGFIRTGGDEQQALCTDEFSDISPLTGGNVAFSTLEGRPSAYNFDNSPVLQEWVTATDIRVTLNRLNTFGDEVFNDPKVLKSYYYAISDFAVGGRCKCNGHASECMKNEFDKLVCNCKHNTYGVDCEKCLPFFNDRPWRRATAESASECLP | 1.89 ± 0.2 nM | –
6 | B1 | – | Kd [3]: 0.39 ± 0.07 nM
